Assay results taken from patent US12692524B2, “Sialyltransferases and their use in producing sialylated oligosaccharides” (Chr. Hansen A/S, priority 2017, dated 2026).

Tests used:
[1] = In vivo screening in E. coli #1363/#1730 with lactose as acceptor, sialyllactose identified by TLC; assay type: cell-based, Escherichia coli BL21(DE3); settings: for Production of sialyllactose in-vivo: 1.5 mM lactose, 72 to 96 hours, qualitative via TLC
Procedure, shortened: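 E. coli BL21(DE3) #1363/#1730 expressing sialyltransferases were grown at 30 °C in mineral salts medium with 2% glucose and induced with 0.3 mM IPTG. After 1 h, 1.5 mM lactose was added, plus 1.5 mM sialic acid for #1730, and incubation ran 72–96 h. Cell lysates were analysed by silica TLC with thymol staining.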

[2] = In vitro sialylation of LNT by protein extracts, LST-a/-b quantified by LC-MS/MS; assay type: biochemical; settings: for Relative efficacy of sialyltransferases regarding in-vitro production of sialyllacto-N-tetraoses: LST-a / Relative efficacy of sialyltransferases regarding in-vitro production of sialyllacto-N-tetraoses: LST-b: 5 mM LNT, 10 mM CMP-Neu5Ac, 16 hours, LC-MS/MS, relative quantity, n.d.: not detectable; for Ranking in the screening for sialylation of LNT: in words
Procedure, shortened: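 E. coli BL21(DE3) crude extracts overexpressing sialyltransferases (IPTG 0.3 mM, 12–16 h at 30 °C) incubated 16 h with 5 mM LNT and 10 mM CMP-Neu5Ac in 50 mM Tris-HCl pH 7.5, 5 mM MgCl2. LST-a and LST-b measured by HILIC LC-MS/MS, MRM in ESI negative mode, against commercial standards.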

[3] = In vitro kinetics (Km, Vmax), donor substrate CMP-Neu5Ac; assay type: biochemical; settings: for Km / Vmax CMP-Neu5Ac: 30° C., pH7.5, protein extract
Method: (§1) To rank the best performing sialyltransferases, their Km values for donor and acceptor substrates were determined in vitro. Escherichia coli BL21(DE3) strain #287 was used for overproduction of the enzymes. Cells were incubated in 100 ml 2YT medium in shaking flasks supplemented with 100 μg m^−1 ampicillin at 30° C. until an OD600 of 0.3 was reached. Then, 0.3 mM IPTG was added and the incubation was continued for 12 to 16 hours. Cells were harvested by centrifugation and mechanically disrupted in a defined volume of 50 mM Tris-HCl pH7.5 using glass beads. The protein extract was kept on ice until the assay started. The in vitro assay was carried out in a total volume of 50 μl including 50 mM Tris-HCl pH7.5, 5 mM MgCl2 and varying concentrations of CMP-Neu5Ac (0.05-30 mM) as well as of lactose or LNT (0.1-50 mM). The assay started with the addition of 35 to 750 μg protein extract. After 1 to 10 minutes of incubation at 30° C., the assay was inactivated at 95° C. for 5 minutes. Product formation was determined by mass spectrometry. Data were evaluated using the enzyme kinetic module of SigmaPlot v12.5 to calculate Km and Vmax.
(§2) Their kinetic parameters for CMP-Neu5Ac and LNT as well as lactose are depicted in Table 6.

[4] = In vitro kinetics (Km, Vmax), acceptor substrate lactose; assay type: biochemical; settings: 30° C., pH7.5, protein extract
Method: as §1, §2

[5] = In vitro kinetics (Km, Vmax), acceptor substrate LNT; assay type: biochemical; settings: 30° C., pH7.5, protein extract
Method: as §1, §2

B1: SiaT73: sialyltransferase of Haemophilus somnus 2336, acc. ACA31170, SEQ ID NO: 20 (protein, listed as Haemophilus somnus)
chain: MKYNIKIKAIVIVSSLRMLLIFLMLNKYHLDEVLFVFNEGFELHKKYKIKHYVAIKKKITKFWRLYYKLYFYRFKIDRIPVYGADHLGWTDYFLKYFDFYLIEDGIANFSPKRYEINLTRNIPVFGFHKTVKKIYLTSLENVPSDIRHKVELISLEHLWKTRTAQEQHNILDFFAFNLDSLISLKMKKYILFTQCLSEDRVISEQEKIAIYQHIIKNYDERLLVIKPHPRETTDYQKYFENVFVYQDVVPSELFELLDVNFERVITLFSTAVFKYDRNIVDFYGTRIHDKIYQWFGDIKF
With B1 the “Production of sialyllactose in-vivo” value [1] was 3′-SL and the “Relative efficacy of sialyltransferases regarding in-vitro production of sialyllacto-N-tetraoses: LST-a” value (shortened to “Relative efficacy … LST-a”) [2] was 15.

B2: SiaT42: sialyltransferase of Actinobacillus capsulatus DSM 19761, acc. WP_018652686, SEQ ID NO: 25 (protein, listed as Actinobacillus capsulatus)
chain: MERIPQLQAVDIYIDFATIPSLSYFLHFLKHKHDHQRLRLFSLARFEMPQTVIEQYEGIIQFSRNVEHNVEQLLEQLQTILSQEGKQFELHLHLNLFHSFEMFLNLSPTYTKYKEKISKIVLHLYDDGSEGVMKQYQLQQSNSLAQDLASTKASLVSLFKNGEGAFSQIDLIRYVWNAVLETHYYLLSDHFLAHEKLQPLKIELGHYQLLNLSAYQYLSSEDLLWLKQILKIDAELESLMHKLTTQPVYFFSGTTFFNISFEDKQRLANIHAILIREHLDPNSQLFIGEPYLFVFKGHPNSPEINQALREYYPNAIFLPENIPFEILTLLGFSPQKIGGFASTIHVNSEQSKLAKLFFLTSTDEQERNRSDGYIKQYALAQAMLEMQLVSQEQVYYCSLSS
In the case of B2, the “Production of sialyllactose in-vivo” value [1] is reported as 3′-SL and the “Relative efficacy … LST-a” value [2] is reported as 3.

B3: SiaT8: sialyltransferase of Photobacterium sp. JT-ISH-224, acc. BAF92025, SEQ ID NO: 3 (protein, listed as Photobacterium sp.)
chain: MGCNSDSNHNNSDGNITKNKTIEVYVDRATLPTIQQMTQIINENSNNKKLISWSRYPINDEELLESINGSFFKNNSELIKSLDSMILTNDIKKVIINGNTLWAADVVNIIKSIEAFGKKTEIELNFYDDGSAEYVRLYDFSKLPESEQEYKISLSKDNILSSINGTQPFENVVENIYGFSQLYPTTYHMLRADIFETNLPLRSLKGVLSNNIKQMKWDYFKTFNSQQKDKFYNFTGFNPDEIMEQYKASPNKNFIFVGTNSGTATAEQQIDILTEAKNPNSPIITKSIQGFDLFFKGHPSATYNKQIIDAHNMIEIYNKIPFEALIMTDALPDAVGGMGSSVFFSLPNTVENKFIFYKSDTDIENNALIQVMIELNIVNRNDVKLISDLQ
With B3 the Km [3] was 4 mM, the “Vmax CMP-Neu5Ac” value [3] was 0.35 µmol/min and the Km [4] was 4.3 mM. The “Vmax Lactose” value [4] was 0.37 µmol/min, the Km [5] was 4.2 mM and the “Vmax LNT” value [5] was 0.32 µmol/min. The “Relative efficacy … LST-a” value [2] was 4.00 × 10^3 and the “Ranking in the screening for sialylation of LNT” value (“Ranking in the screening” for short) [2] was “best performing α-2,3-sialyltransferases for LST-a production”.

B4: SiaT20: sialyltransferase of Campylobacter coli, acc. YP_008473374, SEQ ID NO: 1 (protein, listed as Campylobacter coli)
chain: MQNVIIAGNGPSLQSINYQRLPKEYDIFRCNQFYFEDKYYLGKNIKAAFFNPYPFLQQYHTAKQLVFNNEYKIENIFCSTFNLPFIEKDNFINKFYDFFPDAKLGHKIIENLKEFYAYIKYNEIYLNKRITSGIYMCAIAIALGYKNIYLCGIDFYEGETIYPFKAMSKNIKKIFPWIKDFNPSNFHSKEYDIEILKLLESIYKVNIYALCDNSALANYFPLLVNTDNSFVLENKSDDCINDILLTNNTPGINFYKSQIQVNNTEILLLNFQNMISAKENEISNLNKILQDSYKTINTKENEISNLNKILQDSYKTINTKENEISNLNKILQDKDKLLIVKENLLNFKSRHGKAKFRIQNQLSYKLGQAMMVNSKSLLGYIRMPFVLSYIKDKHKQEQKIYQEKIKKDPSLTLPPLEDYPDYKEALKEKECLTYRLGQTLIKADQEWYKGGYVKMWFEIKKLKKEYKKK
In the case of B4, the “Production of sialyllactose in-vivo” value [1] is reported as 3′-SL, the Michaelis-Menten behaviour ([3]; kinetic parameters for CMP-Neu5Ac, LNT and lactose) is reported as “does not follow a Michaelis-Menten kinetic” and the “Relative efficacy … LST-a” value [2] is reported as 1.00 × 10^4. For the same molecule, the “Ranking in the screening” value [2] was “best performing α-2,3-sialyltransferases for LST-a production”.

B5: SiaT43: sialyltransferase of Bibersteinia trehalosi USDA-ARS-USMARC-189, acc. AHG84654, SEQ ID NO: 18 (protein, listed as Bibersteinia trehalosi)
chain: MEFCKMATTQKICVYLDYATIPSLNYILHFAQHFEDQETIRLFGLSRFHIPESVIQRYPKGVVQFYPNQEKDFSALLLALKNILIEVKQQQRKCEIELHLNLFHYQLLLLPFLSLYLDTQDYCHLTLKFYDDGSEAISALQELALAPDLAAQIQFEKQQFDELVVKKSFKLSLLSRYFWGKLFESEYIWFNQAILQKAELQILKQEISSSRQMDFAIYQQMSDEQKQLVLEILNIDLNKVAYLKQLMENQPSFLFLGTTLFNITQETKTWLMQMHVDLIQQYCLPSGQFFNNKAGYLCFYKGHPNEKEMNQMILSQFKNLIALPDDIPLEILLLLGVIPSKVGGFASSALFNFTPAQIENIIFFTPRYFEKDNRLHATQYRLMQGLIELGYLDAEKSVTHFEIMQLLTKE
For B5, the “Production of sialyllactose in-vivo” value [1] was 3′-SL and the “Relative efficacy … LST-a” value [2] was 21.

B6: SiaT6: sialyltransferase of Photobacterium sp. JT-ISH-224, acc. BAF92026, SEQ ID NO: 29 (protein, listed as Photobacterium sp.)
chain: MSEENTQSIIKNDINKTIIDEEYVNLEPINQSNISFTKHSWVQTCGTQQLLTEQNKESISLSVVAPRLDDDEKYCFDFNGVSNKGEKYITKVTLNVVAPSLEVYVDHASLPTLQQLMDIIKSEEENPTAQRYIAWGRIVPTDEQMKELNITSFALINNHTPADLVQEIVKQAQTKHRLNVKLSSNTAHSFDNLVPILKELNSFNNVTVTNIDLYDDGSAEYVNLYNWRDTLNKTDNLKIGKDYLEDVINGINEDTSNTGTSSVYNWQKLYPANYHFLRKDYLTLEPSLHELRDYIGDSLKQMQWDGFKKFNSKQQELFLSIVNFDKQKLQNEYNSSNLPNFVFTGTTVWAGNHEREYYAKQQINVINNAINESSPHYLGNSYDLFFKGHPGGGIINTLIMQNYPSMVDIPSKISFEVLMMTDMLPDAVAGIASSLYFTIPAEKIKFIVFTSTETITDRETALRSPLVQVMIKLGIVKEENVLFWADLPNCETGVCIAV
In the case of B6, the “Production of sialyllactose in-vivo” value [1] is reported as 6′-SL, the “Described activity confirmed in the lactose screening” value ([1]; in words) is reported as “could be confirmed” and the Km [3] is reported as 2 mM. The “Vmax CMP-Neu5Ac” value [3] was 0.16 µmol/min, the Km [4] was 5.6 mM and the “Vmax Lactose” value [4] was 0.20 µmol/min. The Km [5] was 5.5 mM, the “Vmax LNT” value [5] was 0.13 µmol/min and the “Relative efficacy of sialyltransferases regarding in-vitro production of sialyllacto-N-tetraoses: LST-b” value [2] was 300. The “Ranking in the screening” value [2] was “sialylate LNT most efficiently among the tested α-2,6-sialyltransferases”.

B7: SiaT51: sialyltransferase of Photobacterium damselae subsp. damselae CIP 102761, acc. EEZ40509, SEQ ID NO: 32 (protein, listed as Photobacterium damsela)
chain: MKKILTVLSIFILSACNSDNTSLKETVSSNSADVVETETYQLTPIDAPSSFLSHSWEQTCGTPILNESDKQAISFDFVAPELKQDEKYCFTFKGITGDHRYITNTTLTVVAPTLEVYIDHASLPSLQQLIHIIQAKDEYPSNQRFVSWKRVTVDADNANKLNIHTYPLKGNNTSPEMVAAIDEYAQSKNRLNIEFYTNTAHVFNNLPPIIQPLYNNEKVKISHISLYDDGSSEYVSLYQWKDTPNKIETLEGEVSLLANYLAGTSPDAPKGMGNRYNWHKLYDTDYYFLREDYLDVEANLHDLRDYLGSSAKQMPWDEFAKLSDSQQTLFLDIVGFDKEQLQQQYSQSPLPNFIFTGTTTWAGGETKEYYAQQQVNVINNAINETSPYYLGKDYDLFFKGHPAGGVINDIILGSFPDMINIPAKISFEVLMMTDMLPDTVAGIASSLYFTIPADKVNFIVFTSSDTITDREEALKSPLVQVMLTLGIVKEKDVLFWADLPDCSSGVCIDK
In the case of B7, the “Production of sialyllactose in-vivo” value [1] is reported as 6′-SL and the “Relative efficacy of sialyltransferases regarding in-vitro production of sialyllacto-N-tetraoses: LST-b” value [2] is reported as 10.
